The values below come from publication PMC11147780, “Vaccination induces broadly neutralizing antibody precursors to HIV gp41” (Nature Immunology, 2024).

For experiment [1], the target named is T1, 10E8-GT10.1 epitope scaffold (synthetic construct, circularly …, N-linked glycosylation sites added (positions not given)).
T1 chain: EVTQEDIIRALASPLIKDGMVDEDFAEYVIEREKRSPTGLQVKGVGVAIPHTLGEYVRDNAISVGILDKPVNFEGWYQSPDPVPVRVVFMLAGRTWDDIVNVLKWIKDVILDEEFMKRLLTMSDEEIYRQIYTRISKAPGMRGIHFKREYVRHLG
As to the kind of experiment: SPR; Carterra LSA, HC30M or CMDP chips; antibodies as ligands held by an amine-coupled capture antibody, scaffolds as analytes (monovalent Kd); 1x HBS-EP+ pH 7.4 with 1 mg/ml bovine serum albumin; Langmuir model; values of the main text figures. The settings on record: both partners purified. For orientation: Surface plasmon resonance follows binding to a sensor surface in real time, without labels.

Experiment [2] deals with T2, 10E8-GT10.2 epitope scaffold (designed scaffold 10E8-GT10.2 with …, N-linked glycosylation sites added (positions not given)).
T2 chain: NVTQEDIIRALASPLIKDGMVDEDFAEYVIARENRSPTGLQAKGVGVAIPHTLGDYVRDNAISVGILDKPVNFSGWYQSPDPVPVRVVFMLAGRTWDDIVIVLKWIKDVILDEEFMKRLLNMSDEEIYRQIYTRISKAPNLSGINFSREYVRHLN
Briefly: SPR; values told in the text, methods or extended data without a main figure; instrument not told (Carterra LSA, ProteOn XPR36 with GLC chip or Biacore 4000 with CM5 chip). To be noted: both partners purified.

B1: 10E8 unmutated common ancestor antibody (antibody, V domains shown)
VH: not shown
VL: SSELTQDPAVSVALGQTVRITCQGDSLRSYYASWYQQKPGQAPVLVIYGKNNRPSGIPDRFSGSSSGNTASLTITGAQAEDEADYYCNSRDSSGNHLVVFGGGTKLTVL
notes: also called 10E8 UCA; proposed 10E8 UCA; source: FreeStyle 293F cells or ExpiCHO (high-throughput), purified (protein A)
For B1, the dissociation constant (Kd) in experiment [1] was approximately 0.6 µM.

B2: NHP W3-01 Fab (Fab, V domains shown)
VH: QVQLQESGPGLVKPSETLSLTCAVSGGSFSSDWWGWIRQPPGKGLEWIGTIYGSGGSNYLNPSLKSRVTLSVDTSKNQFSLRLSSVTAADTAVYYCARGSGRYNIWTGYYTPFDAFDFWGRGLRVTVSS
VL: SYELTQPPSMSVSPGQTARITCGGDNLGSKYVHWYQQKPAQAPVLVIYYDSDRPSGIPERFSGSKSGNTATLTISGVEAGDEADYYCQVWDSSSDHYIFGAGTRLTVL
notes: also called 10E8-GT10.2-induced macaque antibody with a YxIW motif from week 3
With B2, in experiment [2], the Kd worked out at 0.0048 µM.

As a reminder, the Kd is the equilibrium constant for the complex coming apart.
